Measurements from paper PMC5727130.
Where “and” joins values, the source holds several entries; their conditions need not be identical. Identical values can stand only once.

Columns and labels:
[1] = target: His6-NT*-thrombin cleavage site-Bri2 BRICHOS fusion protein (human) (UniProt Q9Y287); assay: SEC; Ni-NTA-purified NT*-Bri2 BRICHOS fusion protein resolved on Superdex columns (Supplementary Fig. 1)
[2] = target: recombinant human Bri2 BRICHOS domain (residues 113–231 of full-length human Bri2) (human) (UniProt Q9Y287); assay: SEC; rh Bri2 BRICHOS cleaved from isolated fusion-protein dimers; Superdex 200 PG
[3] = target: recombinant human Bri2 BRICHOS domain (residues 113–231 of full-length human Bri2) (human) (UniProt Q9Y287); assay: SEC; rh Bri2 BRICHOS cleaved from isolated fusion-protein monomers; Superdex 200 PG
[4] = target: recombinant human Bri2 BRICHOS domain (residues 113–231 of full-length human Bri2) (human) (UniProt Q9Y287); assay: SDS-PAGE under non-reducing and reducing conditions; monomeric rh Bri2 BRICHOS (26.8 µM) incubated at 37 °C overnight in 20 mM phosphate pH 8.0, 0.2 mM EDTA, 0.02% NaN3
[5] = target: recombinant human Bri2 BRICHOS domain (residues 113–231 of full-length human Bri2) (human) (UniProt Q9Y287); assay: Western blot after non-reducing SDS-PAGE; rh Bri2 BRICHOS monomer (5 µM) incubated at 37 °C in 80% (v/v) mouse serum, samples at different time points, goat anti-Bri2 BRICHOS blot
[6] = target: recombinant human Bri2 BRICHOS domain (residues 113–231 of full-length human Bri2) (human) (UniProt Q9Y287); assay: negative-stain TEM single-particle 3D reconstruction; oligomers isolated on Superose 6 GL in 20 mM ammonium acetate pH 8.0, 2% uranyl acetate stain, D2 symmetry applied; number of subunits from the volume of the map against that of a monomer model
[7] = target: human Bri2 BRICHOS (residues 113–231) tagged C-terminally with AU1, secreted from HEK293 cells (human) (UniProt Q9Y287); assay: Western blot after non-reducing SDS-PAGE; lysates of HEK293 cells transfected with Bri2 BRICHOS-AU1, anti-AU1 blot (Supplementary Fig. 9a)
[8] = target: human Bri2 BRICHOS (residues 113–231) tagged C-terminally with AU1, secreted from HEK293 cells (human) (UniProt Q9Y287); assay: immunoprecipitation and Western blot after non-reducing SDS-PAGE; culture medium of HEK293 cells transfected with Bri2 BRICHOS; reducing against non-reducing conditions

His6-NT*-thrombin cleavage site-Bri2 BRICHOS fusion protein (from UniProt Q9Y287 113-231) (domain or fragment)
stoichiometry N [1]: 2

recombinant human Bri2 BRICHOS domain (residues 113–231 of full-length human Bri2) (from UniProt Q9Y287 113-231) (domain or fragment)
stoichiometry N [2]: 2 and 4 | stoichiometry N [3]: 2 | stoichiometry N [4]: 2 | stoichiometry N [5]: 2 and 4 and 6 | stoichiometry N [6]: 24

human Bri2 BRICHOS (residues 113–231) tagged C-terminally with AU1, secreted from HEK293 cells (from UniProt Q9Y287 113-231) (domain or fragment)
stoichiometry N [7]: 2 and 4 | stoichiometry N [8]: 2 and 4
